Tests used:
ctnb1_human CTNNB1 = ctnb1_human CTNNB1 (UniProt P35222)
ctnb1_mouse Ctnnb1 = ctnb1_mouse Ctnnb1 (UniProt Q02248)
ctnb1_mouse Ctnnb1, sequence (Q02248 whole entry): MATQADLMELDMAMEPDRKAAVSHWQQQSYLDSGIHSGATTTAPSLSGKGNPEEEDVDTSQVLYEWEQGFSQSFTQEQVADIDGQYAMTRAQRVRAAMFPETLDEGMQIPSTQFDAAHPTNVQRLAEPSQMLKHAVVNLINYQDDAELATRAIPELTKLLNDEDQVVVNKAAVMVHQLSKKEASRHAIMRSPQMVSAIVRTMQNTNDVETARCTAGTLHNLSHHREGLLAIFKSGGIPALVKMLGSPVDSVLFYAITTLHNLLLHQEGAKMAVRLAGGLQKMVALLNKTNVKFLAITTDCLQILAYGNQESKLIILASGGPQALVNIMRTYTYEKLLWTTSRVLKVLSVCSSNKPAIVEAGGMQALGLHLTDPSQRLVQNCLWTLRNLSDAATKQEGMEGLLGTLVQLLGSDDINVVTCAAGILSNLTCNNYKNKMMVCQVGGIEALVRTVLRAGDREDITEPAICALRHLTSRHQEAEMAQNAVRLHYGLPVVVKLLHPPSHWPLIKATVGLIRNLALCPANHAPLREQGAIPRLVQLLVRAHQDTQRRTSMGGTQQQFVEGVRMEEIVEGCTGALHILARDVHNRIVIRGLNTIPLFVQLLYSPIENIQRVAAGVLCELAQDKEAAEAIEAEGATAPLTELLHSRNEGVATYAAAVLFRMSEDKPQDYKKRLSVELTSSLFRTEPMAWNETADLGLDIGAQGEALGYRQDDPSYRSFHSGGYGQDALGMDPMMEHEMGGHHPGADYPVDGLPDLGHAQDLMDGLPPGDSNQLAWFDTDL

ctnb1_human CTNNB1, sequence (P35222 whole entry): as the sequence (Q02248 whole entry) above, with A706P counted along it

Row | effect of a mutation on the interaction (ctnb1_human CTNNB1) | effect of a mutation on the interaction (ctnb1_mouse Ctnnb1) | Substance
1 | decreasing interaction |  | CREB-binding protein (Homo sapiens), Q92793 S92A
2 |  | decreasing interaction | Histone lysine acetyltransferase CREBBP (Mus musculus), P45481 S92A

Source: IntAct's records for PubMed 21751375
